Laboratory results as given in US20240279281A1, “Peptide Inhibitors of Interleukin-23 Receptor” (Janssen Pharmaceutica NV, priority 2023, published 2024).
Starred links: 1 amine or outer side, 2 acyl side, 3 side chain; linkers in the order of their positions; H or OH if unused. Positions of bridges follow the written chain, without caps; N, C: chain ends. Non-standard residues stand in square brackets, D forms with d. No end group written: not given here. *: point of attachment. X1 = 3‑(7-(3-acetamidophenyl)-1H-indol-3-yl)‑2‑aminopropanoic acid, CC(=O)Nc1cccc(-c2cccc3c(CC(N[*:1])C(=O)[*:2])c[nH]c23)c1; X3 = 4‑(2-(4-(2-amino-2-carboxyethyl)phenoxy)ethyl)‑4‑methylmorpholin‑4‑ium, C[N+]1(CCOc2ccc(CC(N[*:1])C(=O)[*:2])cc2)CCOCC1; X10 = 2‑amino‑3‑(4-(2-guanidinoethoxy)phenyl)propanoic acid, N=C(N)NCCOc1ccc(CC(N[*:1])C(=O)[*:2])cc1; X11 = 2‑amino‑3‑(2-hydroxyquinolin-6-yl)propanoic acid, O=C(C(Cc1ccc2nc(O[*:3])ccc2c1)N[*:1])[*:2]; X7 = 2‑amino‑3‑(5-methylpyridin-3-yl)propanoic acid, Cc1cncc(CC(N[*:1])C(=O)[*:2])c1; Trp(7-(3-AcNH-Ph)) = CC(=O)Nc1cccc(-c2cccc3c(C[C@H](N)C(=O)O)c[nH]c23)c1; 2Nal(6-OH) = N[C@@H](Cc1ccc2cc(O)ccc2c1)C(=O)O; Trp(7-Me) = Cc1cccc2c(C[C@H](N)C(=O)O)c[nH]c12; dLys(Me3) = C[N+](C)(C)CCCC[C@@H](N)C(=O)O; AEF = NCCOc1ccc(C[C@H](N)C(=O)O)cc1; 3Pal = N[C@@H](Cc1cccnc1)C(=O)O; Pen = CC(C)(S)[C@H](N)C(=O)O; αMeC = C[C@](N)(CS)C(=O)O; Thp = NC1(C(=O)O)CCOCC1; Abu = CC[C@H](N)C(=O)O; Propionyl = CCC(=O)*; Sar = CNCC(=O)O

T1: interleukin-23 receptor (IL-23R), Q5VWK5
T1 chain: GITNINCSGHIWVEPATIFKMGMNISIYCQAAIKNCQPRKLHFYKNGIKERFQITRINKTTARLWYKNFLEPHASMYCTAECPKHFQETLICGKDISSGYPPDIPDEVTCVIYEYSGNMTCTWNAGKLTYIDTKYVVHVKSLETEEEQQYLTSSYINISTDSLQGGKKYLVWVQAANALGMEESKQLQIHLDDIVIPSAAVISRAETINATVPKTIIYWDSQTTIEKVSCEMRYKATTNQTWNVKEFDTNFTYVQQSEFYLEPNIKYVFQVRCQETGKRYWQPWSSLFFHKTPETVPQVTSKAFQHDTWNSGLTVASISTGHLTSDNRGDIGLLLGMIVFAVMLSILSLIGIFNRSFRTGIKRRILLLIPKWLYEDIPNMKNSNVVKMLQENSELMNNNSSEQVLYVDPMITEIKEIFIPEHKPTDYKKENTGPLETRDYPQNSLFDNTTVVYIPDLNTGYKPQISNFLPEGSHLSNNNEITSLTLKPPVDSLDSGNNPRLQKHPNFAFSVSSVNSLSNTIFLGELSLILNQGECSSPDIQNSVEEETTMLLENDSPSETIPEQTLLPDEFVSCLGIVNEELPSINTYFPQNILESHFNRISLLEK


Molecular target: T1, interleukin-23 receptor (IL-23R), Q5VWK5
Assay: cell-based or functional assay

Binder	IL23R Reporter Assay IC50	PBMC pSTAT3 IC50
K[Pen]NT[Trp(7-Me)]K(Ac)[Pen][2‑amino‑3‑(4-(2-aminoethoxy)phenyl)propanoic acid][2‑amino‑3‑(6-hydroxynaphthalen-2-yl)propanoic acid][Thp]EN[3Pal][Sar] (disulfide 2-7 (inferred); not fully specified (residue 1); ends not checked; also: K1: lipidated lysine, lipid not given here) [SEQ ID NO: 91]	< 10 nM	< 0.1 nM
R[Pen]NT[Trp(7-Me)]K(Ac)[Pen][2‑amino‑3‑(4-(2-aminoethoxy)phenyl)propanoic acid][2‑amino‑3‑(6-hydroxynaphthalen-2-yl)propanoic acid][Thp]EN[3Pal][Sar]K (disulfide 2-7 (inferred); not fully specified (residue 15); ends not checked; also: K15: lipidated lysine, lipid not given here) [SEQ ID NO: 92]	< 10 nM	< 0.1 nM
K[Pen]NT[Trp(7-Me)]K(Ac)[Pen][2‑amino‑3‑(4-(2-aminoethoxy)phenyl)propanoic acid][2‑amino‑3‑(6-hydroxynaphthalen-2-yl)propanoic acid][Thp]EN[3Pal][Sar] (disulfide 2-7 (inferred); not fully specified (residue 1); ends not checked; also: K1: lipidated lysine, lipid not given here) [SEQ ID NO: 90]	< 10 nM	< 0.1 nM
[Pen]NT[Trp(7-Me)]K(Ac)[Pen][AEF][2Nal(6-OH)][Thp]KN[3Pal][Sar] (disulfide 1-6 (inferred); not fully specified (residue 10); ends not checked; also: K10: lipidated lysine, lipid not given here) [SEQ ID NO: 95]	< 10 nM	< 0.1 nM
[Abu]NTWQC[AEF][2Nal(6-OH)][Thp]EN[3Pal][Sar] (ends and bridges not checked) [SEQ ID NO: 98]	< 10 nM	< 0.01 nM
[dK](Propionyl)[Abu]NTWQC[AEF][2Nal(6-OH)][Thp]CN[3Pal][Sar] (ends and bridges not checked) [SEQ ID NO: 10]	< 10 nM	< 0.01 nM
[dK](Me3)[Abu]NTWK(Ac)[αMeC][X10][2Nal(6-OH)][Thp]EN[3Pal][Sar] (ends and bridges not checked) [SEQ ID NO: 1]	< 10 nM	
[Pen]NT[Trp(7-(3-AcNH-Ph))]K(Ac)[Pen][X3][2Nal(6-OH)][Thp]EN[3Pal][Sar] (disulfide 1-6 (inferred); ends not checked) [SEQ ID NO: 100]	< 10 nM	< 0.01 nM
[Pen]NT[X1]K(Ac)[Pen][X10][2‑amino‑3‑(6-hydroxynaphthalen-2-yl)propanoic acid][Thp]EN[X7][Sar] (ends and bridges not checked) [SEQ ID NO: 16]	< 10 nM	< 0.01 nM
R[Pen]NT[X1]K(Ac)[Pen][5‑(4-(2-amino-2-carboxyethyl)phenoxy)‑N,N,N‑trimethylpentan‑1‑aminium][2‑amino‑3‑(6-hydroxynaphthalen-2-yl)propanoic acid][Thp]EN[X7][Sar] (ends and bridges not checked) [SEQ ID NO: 20]	< 10 nM	< 0.1 nM
R[Pen]KT[Trp(7-Me)]K(Ac)[Pen][2‑amino‑3‑(4-(2-aminoethoxy)phenyl)propanoic acid][2‑amino‑3‑(6-hydroxynaphthalen-2-yl)propanoic acid][Thp]EN[3Pal][Sar] (not fully specified (bridges); ends and bridges not checked; also: K3: lipidated lysine, lipid not given here) [SEQ ID NO: 89]	< 10 nM	< 0.1 nM
R[Pen]NT[Trp(7-Me)]K(Ac)[Pen][AEF][2Nal(6-OH)][Thp]EN[3Pal][Sar] (disulfide 2-7 (inferred); ends not checked) [SEQ ID NO: 94]	< 10 nM	< 1 nM
[dLys(Me3)][Pen]NT[X1]K(Ac)[Pen][5‑(4-(2-amino-2-carboxyethyl)phenoxy)‑N,N,N‑trimethylpentan‑1‑aminium][2‑amino‑3‑(6-hydroxynaphthalen-2-yl)propanoic acid][Thp]EN[X7][Sar] (ends and bridges not checked) [SEQ ID NO: 17]	< 10 nM	< 0.01 nM
RCNT[X1]K(Ac)[αMeC][2‑amino‑3‑(4-(2-aminoethoxy)phenyl)propanoic acid][2‑amino‑3‑(6-hydroxynaphthalen-2-yl)propanoic acid][Thp]EN[3Pal][Sar] (ends and bridges not checked) [SEQ ID NO: 2]	< 10 nM	

More lines, now with the values ahead:

IL23R Reporter Assay IC50	PBMC pSTAT3 IC50	Binder
> 100 nM	< 1 nM	R[Pen]NT[X1]K[Pen][2‑amino‑3‑(4-(2-aminoethoxy)phenyl)propanoic acid][2‑amino‑3‑(6-hydroxynaphthalen-2-yl)propanoic acid][Thp]EN[3Pal][Sar] (disulfide 2-7 (inferred); ends not checked; also: K6: lipidated lysine, lipid not given here) [SEQ ID NO: 154]
> 100 nM	< 1 nM	[Pen]NT[X1]K[Pen][2‑amino‑3‑(4-(2-aminoethoxy)phenyl)propanoic acid][2‑amino‑3‑(6-hydroxynaphthalen-2-yl)propanoic acid][Thp]K(Ac)N[3Pal][Sar] (disulfide 1-6 (inferred); ends not checked; also: Lys5: lipidated lysine, lipid not given here) [SEQ ID NO: 152]
> 100 nM	< 1 nM	R[Pen]NT[Trp(7-Me)]K[Pen][AEF][2Nal(6-OH)][Thp]EN[3Pal][Sar] (disulfide 2-7 (inferred); ends not checked; also: K6: lipidated lysine, lipid not given here) [SEQ ID NO: 120]
< 10 nM	< 0.01 nM	[Pen]NT[X1]K(Ac)[Pen][AEF][2Nal(6-OH)][Thp]EN[3Pal][Sar] (disulfide 1-6 (inferred); ends not checked) [SEQ ID NO: 132]
< 10 nM	< 0.01 nM	R[Pen]ET[Trp(7-Me)]K(Ac)[Pen][AEF][2Nal(6-OH)][Thp]EN[3Pal][Sar] (disulfide 2-7 (inferred); ends not checked) [SEQ ID NO: 137]
< 10 nM	< 0.01 nM	R[Pen]ET[Trp(7-Me)]K(Ac)[Pen][AEF][2Nal(6-OH)][Thp]EN[3Pal][Sar] (disulfide 2-7 (inferred); ends not checked) [SEQ ID NO: 136]
< 10 nM	< 0.1 nM	[Pen]NT[Trp(7-Me)]K(Ac)[Pen][2‑amino‑3‑(4-(2-aminoethoxy)phenyl)propanoic acid][X11][Thp]EN[3Pal][Sar] (disulfide 1-6 (inferred); ends not checked) [SEQ ID NO: 149]
> 100 nM	< 1 nM	[Pen]NT[Trp(7-Me)]K[Pen][AEF][2Nal(6-OH)][Thp]K(Ac)N[3Pal][Sar] (disulfide 1-6 (inferred); ends not checked; also: K5: lipidated lysine, lipid not given here) [SEQ ID NO: 130]
< 10 nM	< 0.01 nM	R[Pen]ET[X1]K(Ac)[Pen][2‑amino‑3‑(4-(2-aminoethoxy)phenyl)propanoic acid][2‑amino‑3‑(6-hydroxynaphthalen-2-yl)propanoic acid][Thp]EN[3Pal][Sar] (disulfide 2-7 (inferred); ends not checked) [SEQ ID NO: 157]
